Patent publication US12134789B2, “Construction method and applications of glycosyltransferase BS-YjiC mutant” (Northwest university, priority 2023, dated 2024)
Where “and” joins values, the source holds several entries; their conditions need not be identical. Equal values may be shown once.

What was measured:
[1] = Kinetic parameters with PPD as substrate (HPLC); type: biochemical; conditions: 50-1000 μM PPD, 10 mM UDPG, 8 mM MgCl2, pH 8.0, 35° C., 30 min
Description: 0.22 μg of pure enzyme is added into 50 mM […] (pH 8.0) buffer containing 10 mM UDPG and 8 mM MgCl2, added 50, 100, 200, 300, 400, 500, 600, 800 and 1000 μM PPD respectively, reacted at 35° C. in water bath for 30 min, and then then an equal volume of methanol is added to terminate the enzymatic reaction. The reacted products are centrifuged, then the supernatants are taken and filtered by a 0.22 μm filter to obtain reaction solutions, and the remaining amount of PPD in the reaction solutions is detected by HPLC.

[2] = Thermal stability: residual enzyme activity after incubation at 45° C.; type: biochemical; conditions: pure enzyme incubated in water bath at 45° C. for 90 min; enzyme without high-temperature treatment as blank control
Description: (§1) The detection methods involved in the following embodiments are as follows. • 1. Determination method of enzyme activity of glycosyltransferase BS-YjiC: 50 microliters (μL) of pure enzyme with a concentration of 1.5 milligrams per milliliter (mg/mL) is added to 950 μL of a reaction system containing 50 millimoles per liter (mM) Tris hydrochloride (Tris-HCl) (pH 8.0) buffer of 1 mM protopanaxadiol (PPD), 5 mM uridine diphosphate glucose (UDPG) and 8 mM magnesium chloride (MgCl2); reacted in a water bath at 35° C. for 30 minutes (min), then added the same volume of methanol to terminate the enzymatic reaction, so as to obtain a reacted product. The reacted product is centrifuged, then the supernatant is taken and filtered with a 0.22 micrometers (μm) filter to obtain a reaction solution, and the residual amount of PPD in the reaction solution is detected by high-performance liquid chromatography (HPLC). • 2. Definition of enzyme activity: the amount of enzyme required to convert 1 micromole (μmol) of ginsenoside PPD per minute at 35° C. and pH 8.0 is defined as one unit of enzyme activity U.
After the prepared pure enzymes are incubated in a water bath at 45° C. for 90 min, 1 mL is taken, and the residual enzyme activity of the remaining enzymes is determined according to the enzyme activity determination method of the glycosyltransferase BS-YjiC, and the percentage of residual enzyme activity is obtained by taking the enzyme activity of the pure enzyme solution without high-temperature treatment as a blank control.
The pure enzyme solutions containing wild-type glycosyltransferase BS-YjiC, K125I, N178I, P313W, K125I/N178I and K125I/P313W prepared in the step 2 of the embodiment 6 are taken, respectively, then put in a constant temperature water bath at 45° C., and sampled every 30 min. The residual enzyme activity of glycosyltransferase BS-YjiC is measured according to the enzyme activity determination method, and its thermal stability is compared.

[3] = Melting temperature Tm of the enzyme; type: physicochemical
[4] = Initial enzyme activity of pure enzyme solutions; type: biochemical; conditions: 35° C., pH 8.0, 1 mM PPD, 5 mM UDPG
Description: as §1
The pure enzyme solutions containing the wild-type glycosyltransferase BS-YjiC, K125I, N178I, P313W, K125I/N178I, and K125I/P313W prepared above are detected respectively, and the results are shown in Table 2.

Molecule	Kcat [1]	Km [1]	Vmax [1]	Residual enzyme activity (%) [2]	melting temperature Tm [3]	Initial enzyme activity (%) [4]	increase of melting temperature Tm over natural glycosyltransferase BS-YjiC [3]
WT: wild-type glycosyltransferase BS-YjiC from Bacillus subtilis 168, amino acid sequence SEQ ID NO: 1 (protein) MKKYHISMINIPAYGHVNPTLALVEKLCEKGHRVTYATTEEFAPAVQQAGGEALIYHTSLNIDPKQIREMMEKNDAPLSLLKESLSILPQLEELYKDDQPDLIIYDFVALAGKLFAEKLNVPVIKLCSSYAQNESFQLGNEDMLKKIREAEAEFKAYLEQEKLPAVSFEQLAVPEALNIVFMPKSFQIQHETFDDRFCFVGPSLGERKEKESLLIDKDDRPLMLISLGTAFNAWPEFYKMCIKAFRDSSWQVIMSVGKTIDPESLEDIPANFTIRQSVPQLEVLEKADLFISHGGMNSTMEAMNAGVPLVVIPQMYEQELTANRVDELGLGVYLPKEEVTVSSLQEAVQAVSSDQELLSRVKNMQKDVKEAGGAERAAAEIEAFMKKSAVPQ	0.96 ± 0.06 s⁻¹	132 ± 32.1 µM	8.32 ± 0.36 U g^−1	84.6%	47.30 °C	100%	
P313W: BS-YjiC (SEQ ID NO: 1) mutant with proline at the 313th position mutated into tryptophan (protein) MKKYHISMINIPAYGHVNPTLALVEKLCEKGHRVTYATTEEFAPAVQQAGGEALIYHTSLNIDPKQIREMMEKNDAPLSLLKESLSILPQLEELYKDDQPDLIIYDFVALAGKLFAEKLNVPVIKLCSSYAQNESFQLGNEDMLKKIREAEAEFKAYLEQEKLPAVSFEQLAVPEALNIVFMPKSFQIQHETFDDRFCFVGPSLGERKEKESLLIDKDDRPLMLISLGTAFNAWPEFYKMCIKAFRDSSWQVIMSVGKTIDPESLEDIPANFTIRQSVPQLEVLEKADLFISHGGMNSTMEAMNAGVPLVVIWQMYEQELTANRVDELGLGVYLPKEEVTVSSLQEAVQAVSSDQELLSRVKNMQKDVKEAGGAERAAAEIEAFMKKSAVPQ	1.11 ± 0.08 s⁻¹	136 ± 32 µM	8.94 ± 0.60 U g^−1	89.48%		96.53%	
K125I/N178I: BS-YjiC (SEQ ID NO: 1) double mutant: lysine into isoleucine (K125I) and asparagine 178 into isoleucine (protein) MKKYHISMINIPAYGHVNPTLALVEKLCEKGHRVTYATTEEFAPAVQQAGGEALIYHTSLNIDPKQIREMMEKNDAPLSLLKESLSILPQLEELYKDDQPDLIIYDFVALAGKLFAEKLNVPVIILCSSYAQNESFQLGNEDMLKKIREAEAEFKAYLEQEKLPAVSFEQLAVPEALIIVFMPKSFQIQHETFDDRFCFVGPSLGERKEKESLLIDKDDRPLMLISLGTAFNAWPEFYKMCIKAFRDSSWQVIMSVGKTIDPESLEDIPANFTIRQSVPQLEVLEKADLFISHGGMNSTMEAMNAGVPLVVIPQMYEQELTANRVDELGLGVYLPKEEVTVSSLQEAVQAVSSDQELLSRVKNMQKDVKEAGGAERAAAEIEAFMKKSAVPQ	1.01 ± 0.05 s⁻¹	117 ± 22.5 µM	8.82 ± 0.45 U g^−1	98.3% and 98.25%	54.51 °C	106.47%	7.21 °C
K125I: BS-YjiC (SEQ ID NO: 1) mutant with lysine mutated into isoleucine (K125I) (protein) MKKYHISMINIPAYGHVNPTLALVEKLCEKGHRVTYATTEEFAPAVQQAGGEALIYHTSLNIDPKQIREMMEKNDAPLSLLKESLSILPQLEELYKDDQPDLIIYDFVALAGKLFAEKLNVPVIILCSSYAQNESFQLGNEDMLKKIREAEAEFKAYLEQEKLPAVSFEQLAVPEALNIVFMPKSFQIQHETFDDRFCFVGPSLGERKEKESLLIDKDDRPLMLISLGTAFNAWPEFYKMCIKAFRDSSWQVIMSVGKTIDPESLEDIPANFTIRQSVPQLEVLEKADLFISHGGMNSTMEAMNAGVPLVVIPQMYEQELTANRVDELGLGVYLPKEEVTVSSLQEAVQAVSSDQELLSRVKNMQKDVKEAGGAERAAAEIEAFMKKSAVPQ	0.99 ± 0.05 s⁻¹	128 ± 22.4 µM	8.60 ± 0.41 U g^−1	91.05%		103.15%	
N178I: BS-YjiC (SEQ ID NO: 1) mutant with asparagine at the 178th position mutated into isoleucine (protein) MKKYHISMINIPAYGHVNPTLALVEKLCEKGHRVTYATTEEFAPAVQQAGGEALIYHTSLNIDPKQIREMMEKNDAPLSLLKESLSILPQLEELYKDDQPDLIIYDFVALAGKLFAEKLNVPVIKLCSSYAQNESFQLGNEDMLKKIREAEAEFKAYLEQEKLPAVSFEQLAVPEALIIVFMPKSFQIQHETFDDRFCFVGPSLGERKEKESLLIDKDDRPLMLISLGTAFNAWPEFYKMCIKAFRDSSWQVIMSVGKTIDPESLEDIPANFTIRQSVPQLEVLEKADLFISHGGMNSTMEAMNAGVPLVVIPQMYEQELTANRVDELGLGVYLPKEEVTVSSLQEAVQAVSSDQELLSRVKNMQKDVKEAGGAERAAAEIEAFMKKSAVPQ	1.01 ± 0.07 s⁻¹	132 ± 33.8 µM	8.75 ± 0.62 U g^−1	87.42%		98.76%	
K125I/P313W: BS-YjiC (SEQ ID NO: 1) double mutant: lysine into isoleucine (K125I) and proline 313 into tryptophan (protein) MKKYHISMINIPAYGHVNPTLALVEKLCEKGHRVTYATTEEFAPAVQQAGGEALIYHTSLNIDPKQIREMMEKNDAPLSLLKESLSILPQLEELYKDDQPDLIIYDFVALAGKLFAEKLNVPVIILCSSYAQNESFQLGNEDMLKKIREAEAEFKAYLEQEKLPAVSFEQLAVPEALNIVFMPKSFQIQHETFDDRFCFVGPSLGERKEKESLLIDKDDRPLMLISLGTAFNAWPEFYKMCIKAFRDSSWQVIMSVGKTIDPESLEDIPANFTIRQSVPQLEVLEKADLFISHGGMNSTMEAMNAGVPLVVIWQMYEQELTANRVDELGLGVYLPKEEVTVSSLQEAVQAVSSDQELLSRVKNMQKDVKEAGGAERAAAEIEAFMKKSAVPQ	0.98 ± 0.05 s⁻¹	121 ± 23.1 µM	8.56 ± 0.44 U g^−1	95.1% and 95.43%	53.07 °C	105.13%	5.77 °C
